Test results taken from IntAct's records for PubMed 19918049.

B1: Serine/threonine-protein kinase haspin (Homo sapiens), Q8TF76-1 (parent)
chain: MAASLPGPGSRLFRTYGAADGRRQRRPGREAAQWFPPQDRRRFFNSSGSSDASIGDPSQSDDPDDPDDPDFPGSPVRRRRRRPGGRVPKDRPSLTVTPKRWKLRARPSLTVTPRRLGLRARPPQKCSTPCGPLRLPPFPSRDSGRLSPDLSVCGQPRDGDELGISASLFSSLASPCPGSPTPRDSVISIGTSACLVAASAVPSGLHLPEVSLDRASLPCSQEEATGGAKDTRMVHQTRASLRSVLFGLMNSGTPEDSEFRADGKNMRESCCKRKLVVGNGPEGPGLSSTGKRRATGQDSCQERGLQEAVRREHQEASVPKGRIVPRGIDRLERTRSSRKSKHQEATETSLLHSHRFKKGQKLGKDSFPTQDLTPLQNVCFWTKTRASFSFHKKKIVTDVSEVCSIYTTATSLSGSLLSECSNRPVMNRTSGAPSSWHSSSMYLLSPLNTLSISNKKASDAEKVYGECSQKGPVPFSHCLPTEKLQRCEKIGEGVFGEVFQTIADHTPVAIKIIAIEGPDLVNGSHQKTFEEILPEIIISKELSLLSGEVCNRTEGFIGLNSVHCVQGSYPPLLLKAWDHYNSTKGSANDRPDFFKDDQLFIVLEFEFGGIDLEQMRTKLSSLATAKSILHQLTASLAVAEASLRFEHRDLHWGNVLLKKTSLKKLHYTLNGKSSTIPSCGLQVSIIDYTLSRLERDGIVVFCDVSMDEDLFTGDGDYQFDIYRLMKKENNNRWGEYHPYSNVLWLHYLTDKMLKQMTFKTKCNTPAMKQIKRKIQEFHRTMLNFSSATDLLCQHSLFK

Variants of: B1
Conditions: with h32_mouse H3c13, P84228

| Variant | effect of a mutation on the interaction |
| --- | --- |
| E492A | decreasing interaction |
| H651A | decreasing interaction |
| D707L | decreasing interaction |
| D709N | decreasing interaction |
| G713F | decreasing interaction |
